In the supplement of paper PMC7125110:
± gives the standard error. Variants at the floor of the assay were thinned out.

B1: glmS ribozyme (parent)
chain: AUAAAAGCGCCAGAACUACAGAAAUGUAGUUGACGAGGAGGAGGUUUAUCGAAUUUUCGGCGGAUGCCUCCAAA

Variants of: B1
Test: self-cleavage kobs at 2500 uM GlcN6P; higher = faster cleavage; RNA array
Conditions: with glucosamine-6-phosphate
Procedure, shortened: (§1)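 A hybridised Cy3 probe tracked barcoded ribozyme variants, transcribed in situ by E. coli RNA polymerase on sequenced MiSeq chips, at 37 °C. The variants received 40 μM to 10 mM glucosamine-6-phosphate in HEPES/KCl/Mg(OAc)2 buffer. kobs came from decay fits and kcat and KM from weighted Michaelis–Menten fits.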

Variant	self-cleavage kobs at 2500 uM GlcN6P [s⁻¹]
AUAAAAGUGCCCGACCUACAGAAAUGUAGUUGCCGAGGAGGAGGGUUAUGGAAUUUUCGGCGGAUGCCUCCAAA [C8U A12C A15C A33C U45G C50G]	< 1e-05
AUAAACGCGCCAGAACUACAGAAAUGUAGUUGACGAGGACGAGGUUUAUCGAAUUUUCGGUGGAUGCCUCCAAA [A6C G40C C61U]	< 1e-05
AUAAAAGCGCCAGAACUACAGAAAUGUAGUUGACAAGGAGGGGGGUUAUCGAAUUUUCGGCGGAUGCCUCCAAA [G35A A42G U45G]	< 1e-05
AUAAAAGCGCCAGUACUACAGAAAUGUAGCUGACGAGGAGGAGGUUUAUCGAAUUUUCGGCCGAUGCCGCCAAA [A14U U30C G62C U69G]	< 1e-05
AUAAAAACGCCAGAAUUACAGAAAUGUAGUUGACGAGGAGGAGGUUCAUCGAAUUUUGGGCGGAUGCCUCCAAA [G7A C16U U47C C58G]	< 1e-05
AUAAAAGCGCCAGAUCUACAGAAAUGUAGGUGACGAGGAGGAGGUUUAUCGAAUUUUCGGCGGAUGCGUCCAAA [A15U U30G C68G]	4.51e-05 ± 1.8e-05
AUAAAAGCGCCAGAACUAAAGAAAUGUAGUUCACGAGGAGGAGGUUUAUCGAAUUUUCGGCGGAUGCCUCCAAA [C19A G32C]	4.68e-05 ± 1.6e-05
AUAAAAGCGGCAGAACUACAGAAAUGUAGUUGACGAGGAGAAGGUUUAUCGAAUUUUGGGCGGAUGCCUCCAAA [C10G G41A C58G]	< 1e-05
AUAAAAGCGCCAGUACUACAGAAAUGUAGUUGUCGAGGAGGAGGUUUAUCGACUUUUCGGCGUAUGCCUCCAAA [A14U A33U A53C G63U]	< 1e-05
AUAAAAGCGCCAUAACUACAGAAAUGUAGUUGACGAGGAGGAGGUUUCUCGAAUUUUCGGAGGAUGCCUCCAAA [G13U A48C C61A]	< 1e-05
AUAAACGCGCCAGAACUACAGAAAUGUAGUUGACGAGAAGGAGGUUUAUCGAAUUUUCGGCUGAUGCCUCCAAA [A6C G38A G62U]	< 1e-05
AUAAAAGCGCCAGCAAUACAGAAAUGUAGUUGACGAGGAGGAGGUUUAUCGAAUUUUCGGCGAAUGCCUCCAAA [A14C C16A G63A]	< 1e-05
AUAAAAGCGCCCGAACUACAGAAAUGUAGUUGACGAGGGGGAGGUUCAUCGAAUUUUCGGCGGAUGCCUCCAAA [A12C A39G U47C]	0.00269 ± 0.00067
AUAAACGCGCCAGAACUACAGAAAUGUAGUUGACGAGGAGUAGGUUUAUCGAAUUUUUGGCGGAUGCUUCCAAA [A6C G41U C58U C68U]	< 1e-05
AUAAAAGCGCCAGUACUACAGAAAUGUAGUUGACGAGGAGGAGGUAUAUCGUAUUUUAGGCGGAUGCCUCCAAA [A14U U46A A52U C58A]	< 1e-05
AUAAAAGCGCCAGAACUACAGAAAUGUAGUUGCCGAUGAGGAGGUUUAUCGAAUUUACUGCGGAUGCCUCCAAA [A33C G37U U57A G59U]	< 1e-05
AUAAAAGCGCCAGUACUACAGAAAUGUAGUUGACGAGGAGGAGGUUUAUCAAAUUUUGGUCGUAAGCCUCCAAA [A14U G51A C58G G60U G63U U65A]	< 1e-05
AUAAAAGCGCCAGAACUACAGAAAUGUAGUUUACGAGGAGGAGGUUUAUCGAAUUUUCAGCGGAUGCGUCCAAA [G32U G59A C68G]	0.000713 ± 0.00028

Variant	self-cleavage kobs at 2500 uM GlcN6P [s⁻¹]
AUAAAAGCGCUAGACCUACAGAAAUGUAGUUGACGAGGAGGAGGUUUGUCGAAUAUUCGGCGGAUGCCUCCAAA [C11U A15C A48G U55A]	< 1e-05
AUAAAGGCGCCAGAACUACAGAAAUGUAGUUGACGUGGAGGAGGUUUUUUGAAUUUUCGGCGGAUGCCUCCAAA [A6G A36U A48U C50U]	< 1e-05
AUAAAAGCGCCAGAAGUACAGAAAUGUAGUUGACGAGGAGGAGGUUUAUCGGAUGUUCGGCGGAUGCCUCCAAA [C16G A52G U55G]	9.56e-05 ± 4.1e-05
AUAAAAGCGCCCGAACUACAGAAAUGUAGUUGACGAGGAGGAGGUUUAUGGAAUUUUCGGCGGAUGCCUACAAA [A12C C50G C70A]	0.000246 ± 5.7e-05
AUAAAAGCGCCAGAACUACAGAAAUGUAGUUGACGAGGACGAGGUUAAUCGAAUUUUCGGCCGAUGCCUCCAAA [G40C U47A G62C]	< 1e-05
AUAAAAGCGCCAGAACUACAGAAAUGUAGUUGACGAGGAGGAGGUUUUUAGAAUUUUCGGCGGAGGCCUCCAAA [A48U C50A U65G]	< 1e-05
AUAAAAGUGCCAGAACUACAGAAAUGUAGUUGACGAGGAGGAGGUUUAUCUAAUUUCAGGCGGAUGCCUCCAAA [C8U G51U U57C C58A]	< 1e-05
AUAAAUGCGCCAGAACUACAGAAAUGUAGUUGACGAGGAGGAGGUUAAUCGAGUUUUCUGCGGAUGCCUCCAAA [A6U U47A A53G G59U]	< 1e-05
AUAAAAGCGCCAGAACUACAGAAAUGUAGUUGACGAGGAGGAGGUUUAUCAACUUUUCGGCCGAUGCCUCCAAA [G51A A53C G62C]	< 1e-05
AUAAAAGCGCCAGAACUACAGAAAUGUAAUUGACGAGGAGUAGGUUUAUCGAAUUUUCGGCGGAUGCUUCCAAA [G29A G41U C68U]	< 1e-05
AUAAAAGCGGCAGAACUACAGAAAUGUAGGUGACGAGGUGGAGCUUUCUCGAAUUUUCGGCGGAUGCCUCCAAA [C10G U30G A39U G44C A48C]	< 1e-05
AUAAAAGCGCCGGAACUACAGAAAUGUAGUUGACGAGGAGGACGCUUAUCGAAUUUUCGGGGGAUGCCUCCAAA [A12G G43C U45C C61G]	< 1e-05
AUAAAAGCUCCAUGACUACAGAAAUGUAGUUGACGAAGAGGAGGUUUAUCGAAUUUUCGCCGGAUGCCUCUAAA [G9U G13U A14G G37A G60C C71U]	< 1e-05
AUAAAAACGCCAGAACUACAGAAAUGUAGAUGACGAGGAGGAGGUUUAUCGAAUUUUCGCCGGAUGCCUCCAAA [G7A U30A G60C]	< 1e-05
AUAAAAGCGCCAGAACUACAGAAAUGUAGUUGACCAGGAGGUGGUUUAUCGAAUAUUGGGCGGAUGCCUCCAAA [G35C A42U U55A C58G]	< 1e-05
AUAAAACCGCUAGAACUACAGAAAUGUAGUUGAGGAGGAGGAGGUUUAGCGAAUUUUCGGCGGAUGCCUCCAAA [G7C C11U C34G U49G]	< 1e-05
AUAAAGGCGCCAGAACUACAGAAAUGUAGUUGACGAGGAGGACGUUUAUCGAAUUUUGGGCGGAUGCCUCCAAA [A6G G43C C58G]	< 1e-05

Variants of: B1
Test: self-cleavage kobs at 10000 uM GlcN6P; higher = faster cleavage; RNA array
Conditions: with glucosamine-6-phosphate
Procedure, shortened: as §1

Variant	self-cleavage kobs at 10000 uM GlcN6P [s⁻¹]
AUAAAAGCGCCGGAACUACAGAAAUGUAGUUGACGAGGAGGACGCUUAUCGAAUUUUCGGGGGAUGCCUCCAAA [A12G G43C U45C C61G]	< 1e-05
AUAAAAACGCCAGAACUACAGAAAUGUAGAUGACGAGGAGGAGGUUUAUCGAAUUUUCGCCGGAUGCCUCCAAA [G7A U30A G60C]	< 1e-05
